# Reference: paper PMC2811064
# Molecular target: semi-synthetic KcsA^(70,82) channel (UniProt P0A334)
# Assay: SDS-PAGE
substance,measurement,value
"semi-synthetic KcsA^(70,82) channel (from UniProt P0A334 1-69; P0A334 82-160) (natural protein)",stoichiometry N,4
